Measured values from publication PMC3159478 (Nucleic Acids Research, 2011).
Where a chain is given by its changes, count along the chain named. Names may count otherwise. Read-outs that look alike come from different tables or passages of the source.

Columns and labels:
SsoMCM WT [1] = molecular target: T1, SsoMCM WT (Sulfolobus solfataricus, UniProt Q9UXG1 1-686); assay: fluorescence anisotropy
T1 sequence: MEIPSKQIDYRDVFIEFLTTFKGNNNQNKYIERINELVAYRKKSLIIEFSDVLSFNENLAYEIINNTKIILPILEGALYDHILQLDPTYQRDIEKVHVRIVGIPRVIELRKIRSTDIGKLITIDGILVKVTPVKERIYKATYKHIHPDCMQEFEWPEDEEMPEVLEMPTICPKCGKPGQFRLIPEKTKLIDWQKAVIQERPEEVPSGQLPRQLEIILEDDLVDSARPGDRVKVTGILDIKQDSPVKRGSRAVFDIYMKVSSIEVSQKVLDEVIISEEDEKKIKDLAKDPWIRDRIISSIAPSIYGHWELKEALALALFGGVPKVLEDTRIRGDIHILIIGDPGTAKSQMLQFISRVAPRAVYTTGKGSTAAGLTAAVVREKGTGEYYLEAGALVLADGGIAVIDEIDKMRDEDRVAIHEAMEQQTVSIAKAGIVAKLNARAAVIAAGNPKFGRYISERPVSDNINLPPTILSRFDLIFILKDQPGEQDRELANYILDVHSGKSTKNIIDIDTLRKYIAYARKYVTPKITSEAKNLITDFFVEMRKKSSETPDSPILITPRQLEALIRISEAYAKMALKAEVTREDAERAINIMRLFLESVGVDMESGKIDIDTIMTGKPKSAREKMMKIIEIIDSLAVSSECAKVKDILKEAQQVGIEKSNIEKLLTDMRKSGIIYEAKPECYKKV

SsoMCM K323A/R440A = molecular target: T2, SsoMCM K323A/R440A (Sulfolobus solfataricus, UniProt Q9UXG1 1-686, K323A;R440A); assay: single-pair FRET
T2 sequence: T1 sequence with K323A, R440A

SsoMCM WT [2] = molecular target: T1, SsoMCM WT; assay: single-pair FRET
Q9UXG1 [3] = assay: FRET or BRET
Q9UXG1 [4] = assay: FRET or BRET; remark: listed apart in the source
Q9UXG1 [5] = assay: FRET or BRET; remark: listed apart in the source
Q9UXG1 [6] = assay: FRET or BRET; remark: listed apart in the source
Q9UXG1 [7] = assay: FRET or BRET; remark: listed apart in the source
SEC = molecular target: the molecule itself; assay: SEC

B1: ssDNA (66 nt) (ssDNA)
DNA: CACCTCTCCCTACGCTTCCCACCCACCCCGACCGGCATCTGCTATGGTACGCTGAGCGAGAGTAGC
SsoMCM WT [1]
  Kd: 26 ± 5 nM

B2: spFRET fork 5'-tail 50 (51 nt) (mixed)
DNA 1: TGGCGACGGCAGCGAGGCTTTTTTTTTTTTTTTTTTTTTTTTTTTTTTT
DNA 2: TTTTTTTTTTTTTTTTTTTTTTTTTTTTTTTTTTTTTTTTTTTTTTTTTTTGCCTCGCTGCCGTCGCCA
SsoMCM K323A/R440A
  binding result: binds
SsoMCM WT [2]
  binding result: binds

B3: spFRET fork 5'-tail 70 (71 nt) (mixed)
DNA 1: B2 DNA 1
DNA 2: TTTTTTTTTTTTTTTTTTTTTTTTTTTTTTTTTTTTTTTTTTTTTTTTTTTTTTTTTTTTTTTTTTTTTTTGCCTCGCTGCCGTCGCCA
SsoMCM K323A/R440A
  binding result: binds
SsoMCM WT [2]
  binding result: binds

B4: Wild-type SsoMCM fluorescently labelled at the N-terminus with Alexa 488 (donor) or Alexa 555 (acceptor) (protein)
chain: T1 sequence
Q9UXG1 [3]
  kobs1 of MCM subunit exchange (first exponential, direct exchange of subunits): 0.196 s⁻¹
Q9UXG1 [4]
  kobs1 of MCM subunit exchange (first exponential, direct exchange of subunits): 0.192 s⁻¹
Q9UXG1 [5]
  kobs1 of MCM subunit exchange (first exponential, direct exchange of subunits): 0.125 ± 0.005 min⁻¹
Q9UXG1 [6]
  kobs1 of MCM subunit exchange (first exponential, direct exchange of subunits): 0.0474 s⁻¹
Q9UXG1 [7]
  kobs1 of MCM subunit exchange (first exponential, direct exchange of subunits): 0.0556 s⁻¹

B5: SsoMCM R440A (enzyme, Sulfolobus solfataricus, UniProt Q9UXG1 1-686, looked up)
chain: T1 sequence with R440A
SEC
  stoichiometry N: 6

B6: SsoMCM K323A/R440A (enzyme, Sulfolobus solfataricus, UniProt Q9UXG1 1-686, looked up)
chain: T1 sequence with K323A, R440A
SEC
  stoichiometry N: 6

B7: Full-length wild-type Sulfolobus solfataricus minichromosome maintenance (MCM) helicase (enzyme, UniProt Q9UXG1 1-686, looked up)
chain: T1 sequence
SEC
  stoichiometry N: 6

B8: SsoMCM K323A (enzyme, Sulfolobus solfataricus, UniProt Q9UXG1 1-686, looked up)
chain: T1 sequence with K323A
SEC
  stoichiometry N: 6
